Where no end group is shown, it is not given here. The star is where a group is joined. FITC = O=C1OC2(c3ccc(O)cc3Oc3cc(O)ccc32)c2ccc(NC(=S)*)cc21
Key:
Type in all cases: cell-based
[1] = test system: renal cell lines in which GPC-3 protein was not expressed (HEK-293, Cos-7); assay: Overlay assay of FITC-labeled peptide on cells in which GPC-3 protein was not expressed
Experimental: (§1) The peptide synthesized in Example 8 was subjected to an overlay assay. First, the human hepatocellular carcinoma cells (HepG2, Huh-7) and the renal cell (HEK293) were cultured to about 1×10^5 in an 8-well chamber slide, followed by washing three times with PBS for three min. In order to prevent non-specific reactions, a reaction was performed in Opti-MEM supplemented with 1% BSA for 1 hour. Again, washing was performed three times with PBS for three min, and then cells were fixed with a fixative containing ethanol and acetone at 2:1 for 3 min. The cells were mounted in Mounting medium supplemented with DAPI. FIGS. 8 through 10 illustrate the results.

GPC-3 protein [2] = target: T1, GPC-3 protein (Homo sapiens, UniProt P51654); assay: Overlay assay on HepG2 in competition with equivalent peptide to which FITC was not bound; parameters: the human hepatocellular carcinoma cell line HepG2 in which GPC-3 protein was expressed; endogenous in cells; host or cells: HepG2; settings: competition with unlabeled peptide for bonding to GPC-3 protein
T1 sequence (P51654 25-554): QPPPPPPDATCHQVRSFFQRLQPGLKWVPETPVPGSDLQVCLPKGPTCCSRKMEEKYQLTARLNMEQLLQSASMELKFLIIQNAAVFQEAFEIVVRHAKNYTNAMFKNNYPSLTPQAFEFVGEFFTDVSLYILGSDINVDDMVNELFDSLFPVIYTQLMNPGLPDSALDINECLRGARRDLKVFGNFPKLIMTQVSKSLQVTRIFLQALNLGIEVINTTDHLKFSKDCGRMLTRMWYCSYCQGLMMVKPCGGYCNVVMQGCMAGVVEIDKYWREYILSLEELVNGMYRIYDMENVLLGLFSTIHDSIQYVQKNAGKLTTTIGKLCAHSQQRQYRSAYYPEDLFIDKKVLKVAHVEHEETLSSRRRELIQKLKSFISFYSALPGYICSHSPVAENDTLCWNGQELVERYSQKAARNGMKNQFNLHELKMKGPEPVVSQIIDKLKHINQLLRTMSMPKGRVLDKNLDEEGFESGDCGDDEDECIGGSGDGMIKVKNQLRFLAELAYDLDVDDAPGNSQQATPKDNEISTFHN
Experimental: as §1
FIG. 9 illustrates image results obtained from reaction of a peptide (FITC-RLNVGGTYFLTTRQ) containing the amino acid sequence of SEQ ID No.1 to the human hepatocellular carcinoma cell line HepG2 in which GPC-3 protein was expressed with an equivalent peptide to which FITC were not bound. […] Because a peptide in which a fluorescent material was not labeled and a fluorescent material labeled peptide were competing for bonding to GPC-3 protein, a fluorescent material labeled peptide became less likely to bind to GPC-3.

GPC-3 protein [3] = target: T1, GPC-3 protein; assay: Overlay assay of FITC-labeled peptide on cell lines in which GPC-3 protein was expressed; parameters: the human hepatocellular carcinoma cell line HepG2 in which GPC-3 protein was expressed; endogenous in cells; host or cells: HepG2, Huh-7, SkMel28 (ATCC)
Experimental: as §1

Row | Substance | fluorescence by FITC (overlay, FIG. 7) ([1]; renal cell lines in which GPC-3 protein was not expressed: HEK-293, Cos-7) | fluorescence by FITC in presence of equivalent peptide to which FITC was not bound (FIG. 9) (GPC-3 protein [2]) | fluorescence by FITC (overlay, FIG. 7) (GPC-3 protein [3]; cell lines in which GPC-3 protein was expressed: HepG2, Huh-7, SkMe128, HEK-293 with GPC-3) | fluorescence by FITC (overlay, FIG. 8) ([1]; renal cell line in which GPC-3 protein was not expressed: Cos-7) | fluorescence by FITC (overlay, FIG. 8) (GPC-3 protein [3]; cell lines in which GPC-3 protein was expressed: HepG2, SkMe128, HEK-293 with GPC-3)
1 | FITC-RLNVGGTYFLTTRQ ({FITC}-RLNVGGTYFLTTRQ) | fluorescence was not observed | fluorescence was not observed | fluorescence by FITC was observed | – | –
2 | FITC-YFLTTRQ ({FITC}-YFLTTRQ) | – | – | – | fluorescence was not observed | fluorescence by FITC was observed

Reference: US8388937B2, “Specific peptide binding to glypican-3” (Kyungpook National University Industry—Academic Cooperation …, priority 2009, dated 2013)
